Experimental findings from patent US20150368338A1 (Janssen / Centocor, published 2015) are described below.

One assay addresses IFN-αH2 (human, UniProt P01570 24-189). As to the kind of experiment: cell-based or functional assay.
In assay [1] the target is T1, IFN-αC (human, UniProt P01566 24-189). The experiment in a line: cell-based or functional assay.
The target of assay [2] is T2, IFN-αF (human, UniProt P01568 24-189).
T2 chain: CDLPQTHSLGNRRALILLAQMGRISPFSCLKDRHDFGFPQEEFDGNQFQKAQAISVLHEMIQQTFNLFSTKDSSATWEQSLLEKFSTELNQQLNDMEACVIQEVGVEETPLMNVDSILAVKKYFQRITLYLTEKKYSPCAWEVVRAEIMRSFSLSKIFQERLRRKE
As to the kind of experiment: cell-based or functional assay.

Assay [3] deals with T3, IFN-αG (human, UniProt P01569 24-189). The experiment in a line: cell-based or functional assay.
Assay [4] addresses T4, human IFN-ω (human, UniProt P05000 24-195).
T4 construct: Recombinant, HEK293; also called interferon omega
As to the kind of experiment: ProteOn SPR, cell supernatant.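 Note: each binding measurement used just a single antigen concentration.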
Text: (§1) To increase the assay throughput, only one concentration of the individual antigen was used.

Assay [5] has as its target T1, IFN-αC. As to the kind of experiment: ProteOn SPR, cell supernatant.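 Note: each binding measurement used just a single antigen concentration.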
Text: as §1
In assay [6] the target is T2, IFN-αF. The experiment in a line: ProteOn SPR, cell supernatant.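 Note: each binding measurement used just a single antigen concentration.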
Text: as §1
The target in assay [7] is T5, IFN-αJ1 (human, UniProt P01567 24-189).
T5 construct: Recombinant, HEK293; also called IFN-α7
As to the kind of experiment: ProteOn SPR, cell supernatant.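 Note: each binding measurement used just a single antigen concentration.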
Text: as §1

For assay [8], the target named is T6, IFN-α4a (human, UniProt P05014 24-189).
T6 construct: Recombinant, HEK293; also called IFN-αM1
As to the kind of experiment: ProteOn SPR, cell supernatant.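 Note: each binding measurement used just a single antigen concentration.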
Text: as §1

In assay [9] the target is T3, IFN-αG. The experiment in a line: ProteOn SPR, cell supernatant.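 Note: each binding measurement used just a single antigen concentration.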
Text: as §1
For assay [10], the target named is T7, IFN-αWA (human, UniProt P05015 24-189).
T7 construct: Recombinant, HEK293; also called IFN-α16
As to the kind of experiment: ProteOn SPR, cell supernatant.
Text: as §1

The next assay deals with IFN-αI (human, UniProt P01571 24-189). The experiment in a line: cell-based or functional assay.
Assay [11] deals with IFN-αJ1 (human, UniProt P01567 24-189). The experiment in a line: cell-based or functional assay.
The target in a further assay is IFN-αK (human, UniProt P05013 24-189). As to the kind of experiment: cell-based or functional assay.
The target in assay [12] is IFN-αWA (human, UniProt P05015 24-189). The experiment in a line: cell-based or functional assay.
The target in assay [13] is IFN-α4a (human, UniProt P05014 24-189). The experiment in a line: cell-based or functional assay.
Assay [14] addresses human IFN-ω (human, UniProt P05000 24-195). The experiment in a line: cell-based or functional assay.

B1: IFWM3416 (antibody, IgG1, V domains shown)
VH: EVQLVQSGAEVKKPGESLKISCKGSGYSFTSYWIGWVRQMPGKGLEWMGIIDPSDSDTRYSPSFQGQVTISADKSISTAYLQWSSLKASDTAMYYCARHPGLAWAPDFDYWGQGTLVTVSS
VL: DIQMTQSPSSLSASVGDRVTITCRASQSIRNTNLNWYQQKPGKAPKLLIHWASSLQSGVPSRFSGSGSGTDFTLTISSLQPEDFATYYCQQGYDTPFTFGQGTKVEIK
notes: mAb; IgG1/kappa said of the parent and of selected mAbs; also called IFWB3151
Regarding B1, the “IC50, ISRE assay” value with IFN-αH2 came to 0.035 nM; with IFN-αC [1], 0.112 nM; with IFN-αF [2], 0.064 nM; in the assay with IFN-αG [3] it was 0.049 nM. Also, the Kd (in general, the constant that tells how readily two partners part at equilibrium) in the assay with human IFN-ω [4] was determined as 0.028 nM; with IFN-αC [5], 0.029 nM; with IFN-αF [6], 0.045 nM; with IFN-αJ1 [7], 0.068 nM; with IFN-α4a [8] it was 0.103 nM; with IFN-αG [9], 0.029 nM. For the same molecule, the Kd with IFN-αWA [10] came out at 0.069 nM.

B2: IFWM3308 (antibody, IgG1, V domains shown)
VH: EVQLVQSGAEVKKPGESLKISCKGSGYSFTSYWIGWVRQMPGKGLEWMGIIDPSDSDTRYSPSFQGQVTISADKSISTAYLQWSSLKASDTAMYYCARHPGLNWAPDFDYWGQGTLVTVSS
VL: DIQMTQSPSSLSASVGDRVTITCRASQSIAEFLNWYQQKPGKAPKLLIYFASSLQSGVPSRFSGSGSGTDFTLTISSLQPEDFATYYCQQSIDFPLTFGQGTKVEIK
As to B2, the “IC50 (pM), ISRE assay” value with IFN-αI stood at 478 pM; with IFN-αJ1 [11] it was 363 pM; with IFN-αK it was 59 pM; in the assay with IFN-αWA [12] it was 894 pM; with IFN-α4a [13], 295 pM; with human IFN-ω [14], 40 pM.

B3: IFWM3332 (antibody, IgG1, V domains shown)
VH: EVQLVQSGAEVKKPGESLKISCKGSGYSFTSYWIGWVRQMPGKGLEWMGIIDPSDSDTRYSPSFQGQVTISADKSISTAYLQWSSLKASDTAMYYCARHPGLNWAPDFDYWGQGTLVTVSS
VL: DIQMTQSPSSLSASVGDRVTITCRASQSIANTNLNWYQQKPGKAPKLLIHWASSLQSGVPSRFSGSGSGTDFTLTISSLQPEDFATYYCQQWYDNPLTFGQGTKVEIK
Regarding B3, the “IC50 (pM), ISRE assay” value with IFN-αI was found to be 893 pM; with IFN-αJ1 [11], 487 pM; with IFN-αK, 76 pM; in the assay with IFN-αWA [12], 947 pM; with IFN-α4a [13], 519 pM; in the assay with human IFN-ω [14], 228 pM.

B4: IFWM3310 (antibody, IgG1, V domains shown)
VH: EVQLVQSGAEVKKPGESLKISCKGSGYSFTSYWIGWVRQMPGKGLEWMGIIDPSDSDTRYSPSFQGQVTISADKSISTAYLQWSSLKASDTAMYYCARHPGLNWAPDFDYWGQGTLVTVSS
VL: DIQMTQSPSSLSASVGDRVTITCRASQSIGKSLNWYQQKPGKAPKLLIYFASSLQSGVPSRFSGSGSGTDFTLTISSLQPEDFATYYCQQSYDFPLTFGQGTKVEIK
For B4, the “IC50 (pM), ISRE assay” value with IFN-αI was 258 pM; in the assay with IFN-αJ1 [11], 166 pM; in the assay with IFN-αK it was 96 pM; in the assay with IFN-αWA [12], 473 pM; with IFN-α4a [13] it was 169 pM; with human IFN-ω [14], 81 pM.

B5: IFWM3328 (antibody, IgG1, V domains shown)
VH: EVQLVQSGAEVKKPGESLKISCKGSGYSFTSYWIGWVRQMPGKGLEWMGIIDPSDSDTRYSPSFQGQVTISADKSISTAYLQWSSLKASDTAMYYCARHPGLNWAPDFDYWGQGTLVTVSS
VL: DIQMTQSPSSLSASVGDRVTITCRASQSINNLNWYQQKPGKAPKLLIYWASSLQSGVPSRFSGSGSGTDFTLTISSLQPEDFATYYCQQGYDTPFTFGQGTKVEIK
In the case of B5, the “IC50 (pM), ISRE assay” value with IFN-αI worked out at 2000 pM; in the assay with IFN-αJ1 [11] it was 1660 pM; in the assay with IFN-αK, 321 pM; in the assay with IFN-αWA [12], 3080 pM; in the assay with IFN-α4a [13], 1170 pM; with human IFN-ω [14], 456 pM.

B6: IFWM3314 (antibody, IgG1, V domains shown)
VH: EVQLVQSGAEVKKPGESLKISCKGSGYSFTSYWIGWVRQMPGKGLEWMGIIDPSDSDTRYSPSFQGQVTISADKSISTAYLQWSSLKASDTAMYYCARHPGLNWAPDFDYWGQGTLVTVSS
VL: DIQMTQSPSSLSASVGDRVTITCRASQSIDRALNWYQQKPGKAPKLLIYFASSLQSGVPSRFSGSGSGTDFTLTISSLQPEDFATYYCQQSFDFPLTFGQGTKVEIK
In the case of B6, the “IC50 (pM), ISRE assay” value with IFN-αI was 163 pM; in the assay with IFN-αJ1 [11] it was 86 pM; in the assay with IFN-αK, 65 pM; in the assay with IFN-αWA [12], 188 pM; in the assay with IFN-α4a [13] it was 137 pM; with human IFN-ω [14], 32 pM.

B7: IFWM3322 (antibody, IgG1, V domains shown)
VH: EVQLVQSGAEVKKPGESLKISCKGSGYSFTSYWIGWVRQMPGKGLEWMGIIDPSDSDTRYSPSFQGQVTISADKSISTAYLQWSSLKASDTAMYYCARHPGLNWAPDFDYWGQGTLVTVSS
VL: DIQMTQSPSSLSASVGDRVTITCRASQSIADFLNWYQQKPGKAPKLLIYFASSLQSGVPSRFSGSGSGTDFTLTISSLQPEDFATYYCQQSHSFPLTFGQGTKVEIK
B7: the “IC50 (pM), ISRE assay” value in the assay with IFN-αI is 460 pM; with IFN-αJ1 [11] it was 169 pM; in the assay with IFN-αK, 71 pM; in the assay with IFN-αWA [12], 382 pM; in the assay with IFN-α4a [13], 352 pM; in the assay with human IFN-ω [14], 59 pM.

B8: IFWM371 (antibody, IgG1, V domains shown)
VH: EVQLVQSGAEVKKPGESLKISCKGSGYSFTSYWIGWVRQMPGKGLEWMGIIDPSDSDTRYSPSFQGQVTISADKSISTAYLQWSSLKASDTAMYYCARHPGLNWAPDFDYWGQGTLVTVSS
VL: not shown
As to B8, the “IC50 (pM), ISRE assay” value with IFN-αJ1 [11] was 35700 pM; with IFN-αK, 7300 pM; in the assay with IFN-αWA [12] it was 74200 pM; in the assay with IFN-α4a [13], 32800 pM; in the assay with human IFN-ω [14] it was 43900 pM.

B9: IFWM3307 (antibody, IgG1, V domains shown)
VH: EVQLVQSGAEVKKPGESLKISCKGSGYSFTSYWIGWVRQMPGKGLEWMGIIDPSDSDTRYSPSFQGQVTISADKSISTAYLQWSSLKASDTAMYYCARHPGLNWAPDFDYWGQGTLVTVSS
VL: DIQMTQSPSSLSASVGDRVTITCRASQSIGDFLNWYQQKPGKAPKLLIYFASSLQSGVPSRFSGSGSGTDFTLTISSLQPEDFATYYCQQALDFPLTFGQGTKVEIK
On to B9, for which the “IC50 (pM), ISRE assay” value with IFN-αI stood at 752 pM; in the assay with IFN-αJ1 [11], 328 pM; in the assay with IFN-αK it was 95 pM; with IFN-αWA [12], 600 pM; with IFN-α4a [13] it was 501 pM; with human IFN-ω [14] it was 100 pM.

B10: IFWM3304 (antibody, IgG1, V domains shown)
VH: EVQLVQSGAEVKKPGESLKISCKGSGYSFTSYWIGWVRQMPGKGLEWMGIIDPSDSDTRYSPSFQGQVTISADKSISTAYLQWSSLKASDTAMYYCARHPGLNWAPDFDYWGQGTLVTVSS
VL: DIQMTQSPSSLSASVGDRVTITCRASQSIGSALNWYQQKPGKAPKLLIYFASSLQSGVPSRFSGSGSGTDFTLTISSLQPEDFATYYCQQSYDFPLTFGQGTKVEIK
As for B10, the “IC50 (pM), ISRE assay” value in the assay with IFN-αI was found to be 157 pM; with IFN-αJ1 [11], 126 pM; with IFN-αK it was 57 pM; with IFN-αWA [12], 237 pM; with IFN-α4a [13], 112 pM; with human IFN-ω [14], 31 pM.

B11: IFWM3320 (antibody, IgG1, V domains shown)
VH: EVQLVQSGAEVKKPGESLKISCKGSGYSFTSYWIGWVRQMPGKGLEWMGIIDPSDSDTRYSPSFQGQVTISADKSISTAYLQWSSLKASDTAMYYCARHPGLNWAPDFDYWGQGTLVTVSS
VL: DIQMTQSPSSLSASVGDRVTITCRASQSINGVLNWYQQKPGKAPKLLIYFASSLQSGVPSRFSGSGSGTDFTLTISSLQPEDFATYYCQQSHDFPLTFGQGTKVEIK
Regarding B11, the “IC50 (pM), ISRE assay” value came to 355 pM with IFN-αI; 213 pM in the assay with IFN-αJ1 [11]; 34 pM in the assay with IFN-αK; 633 pM with IFN-αWA [12]; 166 pM with IFN-α4a [13]; 53 pM in the assay with human IFN-ω [14].
